The target of experiment [1] is T1, Human P-cadherin on cells (human, UniProt P22223 108-829).
T1 construct: whole, on cells; Endogenous P-cadherin on tumour cell lines; also called hPro1
In words: FACS on DU-145 cells. Here is the method: (§1) Binding of the test antibodies to P-cadherin expressed on cells was determined by flow cytometry analysis. […] 1×10⁵ cells/well (100 μL) were added to each well of a 96-well U-plate (Corning, #3799) and centrifuged at 1500 rpm (Eppendorf, #5810R) for 5 minutes before removing the supernatant. Antibodies serially diluted in 1% BSA/1×PBS (Ca+/Mg+) were added at 100 μL/well to the pelleted cells and incubated at 4° C. for 1 hour. Anon-related hIgG1 antibody was used as an isotype control. Cells were washed two times with 180 μL/well of 1% BSA/1×PBS (Ca+/Mg+) by centrifugation at 1500 rpm for 5 minutes at 4° C. Pelleted cells were resuspended in 100 μL/well Alexa647 conjugated Goat anti-human IgG Fc (Jackson, #109-605-098) 1:500 diluted in 1% BSA/1×PBS (Ca+/Mg+) for 30 minutes at 4° C. in the dark. Cells were then washed two times as described above. After the final wash, cells were resuspended in 100 μL 1% BSA/1×PBS (Ca+/Mg+) and fluorescence values were measured with a FACS Canto II cytometer (BD Biosciences). The amount of cell surface bound anti-P-cadherin antibody was assessed by measuring the mean fluorescence (MFI). The FACS raw data were analyzed by FlowJo software, wells containing no antibody or secondary antibody only were used to establish background fluorescence. Binding EC50 values were obtained by the four-parameter non-linear regression analysis using GraphPad Prism6 software.

For experiment [2], the target named is T1, Human P-cadherin on cells. Description: FACS on HCT-116 cells. On the procedure:
as §1

For experiment [3], the target named is T1, Human P-cadherin on cells. In words: cell-based or functional assay.
The target in experiment [4] is T1, Human P-cadherin on cells. In words: FACS on NCI-H1650 cells. Here is the method: as §1
In experiment [5] the target is T1, Human P-cadherin on cells. Description: FACS on HCT-116 cells, antibody kept in human serum at 37 C, Day 0. Here is the method:
(§2) The antibody stability in human serum was tested by FACS. Briefly, human serum was freshly isolated by centrifuging the fresh blood twice at 4000 rpm for 10 minutes. […] As a control, antibodies serum mix was frozen immediately without 37° C. incubation. For the FACS analysis, the samples from different time points were free-thawed simultaneously at 4° C. […] The cells were washed twice with 1% BSA/1×PBS (Ca+/Mg+). Alexa647 conjugated Goat anti-human IgG Fc (Jackson, #109-605-098) 1:500 diluted in 1% BSA/1×PBS (Ca+/Mg+) were added to the cells and incubated at 4° C. for 30 minutes. Cells were washed twice in the same buffer and the mean fluorescence (MFI) of stained cells was measured using a FACS Canto II cytometer (BD Biosciences) and analyzed by FlowJo. Wells containing no antibody or secondary antibody only were used to establish background fluorescence. Four-parameter non-linear regression analysis was used to obtain EC50 values for cell binding using GraphPad Prism6 software.

The target in experiment [6] is T1, Human P-cadherin on cells. In words: FACS on HCT-116 cells, antibody kept in human serum at 37 C, Day 4. On the procedure: as §2
Experiment [7] concerns the target T1, Human P-cadherin on cells. Description: FACS on HCT-116 cells, antibody kept in human serum at 37 C, Day 7. Here is the method: as §2
For experiment [8], the target named is T1, Human P-cadherin on cells. Description: FACS on HCT-116 cells, antibody kept in human serum at 37 C, Day 14. On the procedure:
as §2

The values that follow come from US20240034786A1 (WUXI BIOLOGICS IRELAND, published 2024).

Usually EC50 stands for the concentration giving half of the maximal effect. Higher therefore signals a need for much substance.

T1 sequence (P22223 108-829): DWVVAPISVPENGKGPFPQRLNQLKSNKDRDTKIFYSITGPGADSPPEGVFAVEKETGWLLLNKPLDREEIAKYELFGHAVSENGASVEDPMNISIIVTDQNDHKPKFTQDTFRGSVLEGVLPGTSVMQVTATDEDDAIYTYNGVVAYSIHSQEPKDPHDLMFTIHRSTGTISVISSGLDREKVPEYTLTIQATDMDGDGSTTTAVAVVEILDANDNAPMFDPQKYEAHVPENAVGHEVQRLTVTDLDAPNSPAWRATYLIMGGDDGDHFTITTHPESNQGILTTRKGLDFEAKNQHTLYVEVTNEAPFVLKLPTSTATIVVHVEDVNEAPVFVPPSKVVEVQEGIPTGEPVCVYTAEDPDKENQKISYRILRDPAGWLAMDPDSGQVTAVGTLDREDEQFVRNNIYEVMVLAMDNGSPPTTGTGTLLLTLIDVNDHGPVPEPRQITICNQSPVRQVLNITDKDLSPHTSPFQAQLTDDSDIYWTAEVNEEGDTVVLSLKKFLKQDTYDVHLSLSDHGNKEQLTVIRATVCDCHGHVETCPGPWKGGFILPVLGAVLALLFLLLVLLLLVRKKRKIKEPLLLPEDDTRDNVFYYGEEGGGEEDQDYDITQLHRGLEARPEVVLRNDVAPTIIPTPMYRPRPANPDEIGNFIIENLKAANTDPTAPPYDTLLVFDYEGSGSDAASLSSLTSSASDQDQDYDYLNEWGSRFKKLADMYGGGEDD

B1: W3195-1.53.1-p1-uIgG1L (antibody)
heavy: not shown
light: SYELTQPPSVSVSPGQTAQITCSGDKLGDKFASWYQQKSGQSPVVVIYQDNKRPSGFPERFSGSNSGNTATLTISGTQAMDEADYYCQAWDSSIVVFGGGTKLTVLGQPKAAPSVTLFPPSSEELQANKATLVCLISDFYPGAVTVAWKADSSPVKAGVETTTPSKQSNNKYAASSYLSLTPEQWKSHRSYSCQVTHEGSTVEKTVAPTECS
notes: also called W3195-p1 antibody
For B1, the EC50 in experiment [1] worked out at 0.1 nM; in experiment [2], 0.21 nM; in experiment [4], 0.22 nM; in experiment [5] it was 0.2 nM; in experiment [6], 0.16 nM; in experiment [7], 0.21 nM. Moreover, the EC50 in experiment [8] is 0.2 nM. Besides, the “Max MFI” value in experiment [1] was 2290. The “internalization, Fab-ZAP CTG assay on HCC-1954, IC50” value in experiment [3] came out at 0.02 nM.
